Data taken from patent publication US11787839B2, “Targeting α2δ-1-bound glutamate receptors for treating diseases and disorders” (Board of Regents, The University of Texas System, priority 2017, dated 2023).

Legend:
[1] = target: T1, NMDARs of spinally projecting PVN neurons (Rattus norvegicus, UniProt P35439+Q00959+Q00960); experiment: Recordings of spinally projecting PVN neurons in rat brain slices (Ang II); format: cell-based; details: losartan 2 μmol/L, pregabalin 20 μmol/L, peptides 1 μmol/L
T1 construct: from tissue; host or cells: rat hypothalamic slices containing the PVN (Sprague-Dawley, WKY, SHR) and synaptosomes made from them
Text: Retrograde labeling of spinally projecting PVN neurons: Rats or mice were anesthetized with 2-3% isoflurane, and their spinal cords at the T1-T4 level were exposed through dorsal laminectomy. A fluorescent microsphere suspension (FluoSpheres, 0.04 μm; Molecular Probes, Invitrogen, Eugene, Oreg.) was pressure ejected (Nanoject II Microinjectors, Drummond Scientific Company, Broomall, Pa.) bilaterally into the IML region of the spinal cord in six separate 50-nl injections using a glass micropipette (tip diameter, 20-30 μm). […] The wound was closed with sutures after injection. Animals were returned to their cages for 4-7 days, which was sufficient time to permit the tracer to be retrogradely transported to the PVN. The animals were inspected daily for motor activity, signs of infection, and food and water intake.
Brain slice preparation: Four to seven days after fluorescent tracer injection, the animals were anesthetized with isoflurane and rapidly decapitated. […] Coronal slices (thickness, 300 μm) containing the PVN were cut from the tissue block in the ice-cold aCSF. […] The brain slices were placed in a glass-bottom chamber and continuously perfused with aCSF at 3.0 ml/min at 34° C. maintained by an inline solution heater and temperature controller.
The labeled PVN neurons were briefly identified with the aid of epifluorescence illumination, and whole-cell recordings from labeled PVN neurons were performed under differential interference contrast optics on an upright microscope (BX50 WI; Olympus Optical, Tokyo, Japan). Recordings of postsynaptic currents began 5 min after the whole-cell access was established and the current reached a steady state.
Signals were processed with an […] amplifier (Axon Instruments, Foster City, Calif.). A liquid junction potential of 15 mV (for the potassium gluconate pipette solution) was corrected during off-line analysis.
Postsynaptic NMDAR currents were elicited by puff application of 100 μmol/L NMDA to the recorded neuron using a positive pressure system (4 p.s.i., 50 ms; Toohey Company, Fairfield, N.J.). The tip of the puff pipette was placed 150 μm from the recorded neuron. […] The NMDAR current data presented in the manuscript were the average of 3 consecutive currents elicited by repeated puff NMDA. The neuron was discarded if the current was not stable.
Ang II, losartan, and NMDA were obtained from Sigma (St. Louis, Mo.). The α2δ-1Tat peptide and scrambled control peptide were synthesized by Bio Basic Inc. (Markham, Ontario, Canada) and validated by liquid chromatography and mass spectrometry. […] All drugs were prepared immediately before the experiments and applied to the slice chamber. The brain slices were first pretreated with Ang II, losartan, α2δ-1Tat peptide, or control peptide in the slice incubation chamber before recording. For electrophysiological recording, the treatment agents were immediately removed and the brain slice transferred to a separate recording chamber.

[2] = target: T2, presynaptic NMDARs of spinal dorsal horn neurons (Rattus norvegicus, UniProt P35439+Q00959+Q00960); experiment: Spinal cord slice recordings, morphine-treated rats; format: cell-based; details: AP5 50 μM, gabapentin 100 μM, peptides 1 μM for 60 min
T2 construct: from tissue; host or cells: rat lumbar spinal cord slices (lamina II neurons) and synaptosomes made from them
Protocol: Spinal cord slice preparation and electrophysiological recordings: The lumbar spinal cord was rapidly removed through laminectomy from the animals anesthetized with isoflurane. […] The spinal cord tissue was then placed in a shallow groove formed in an agar block and glued onto the stage of a vibratome (Leica, Germany).
All signals were recorded using an amplifier (MultiClamp700B; Axon Instruments Inc., Union City, Calif.), filtered at 1-2 kHz, and digitized at 10 kHz.

[3] = target: presynaptic NMDARs of spinal lamina II neurons (Rattus norvegicus, UniProt P35439+Q00959+Q00960)
[4] = target: T3, NMDARs of hippocampal CA1 pyramidal neurons (Mus musculus, UniProt O08532+P35438); experiment: Puff NMDAR currents of hippocampal CA1 neurons, oxygen-glucose deprivation (OGD); format: cell-based; details: 5 min OGD; gabapentin 30 or 100 μM, peptides 1 μM, 60 min
T3 construct: from tissue; host or cells: mouse brain slices (hippocampal CA1, hypothalamic PVN, brain tissue membrane extracts)
Protocol: Brain slice preparation and recording. The tissues containing the hippocampus were sliced sagittally (300 μm thick) using a vibratome. […] NMDAR currents of pyramidal neurons in the hippocampal CA1 region were recorded by puff application of 100 μM NMDA directly to the recorded neuron at a holding potential of −60 mV.

[5] = target: T4, α2δ-1 and NMDAR subunits in spinal cord synaptosomes (Rattus norvegicus, UniProt P35439+Q00959+Q00960); experiment: Protein levels in spinal cord synaptosomes of treated slices (SNL, sham); format: cell-based; details: slices treated 30 min
T4 construct: from tissue; host or cells: rat lumbar spinal cord slices (lamina II neurons) and synaptosomes made from them
Protocol: PSD-95, a known postsynaptic protein, was used as an internal control.
Spinal cord synaptosome preparation: The spinal cord slices were pooled from 2 rats and were homogenized using glass-Teflon homogenizer in 10 volumes of ice-cold HEPES-buffered sucrose (0.32 M sucrose, 1 mM EGTA, and 4 mM HEPES at pH 7.4) containing the protease inhibitor cocktail (Sigma-Aldrich). The homogenate was centrifuged at 1,000×g for 10 min at 4° C. to remove the nuclei and large debris. […] The synaptosomal pellet was lysed via hypo-osmotic shock in 9 volumes of ice-cold HEPES-buffer with the protease inhibitor cocktail for 30 min. The lysate was centrifuged at 25,000×g for 20 min at 4° C. to obtain the synaptosomal membrane fraction, which was then dissolved in sodium dodecyl sulfate sample buffer at a final concentration of 0.25 μg/μl for immunoblotting. […] The α2δ-1Tat peptide and scrambled control peptide were synthesized by Bio Basic Inc. (Marham, Ontario, Canada) and validated by using liquid chromatography and mass spectrometry.

anesthetized rats = experiment: PVN microinjection and recording of RSNA and ABP (Ang II); format: in vivo, rat; details: peptides 100 μmol/L, 50 nl
Protocol: PVN microinjection and recording of renal sympathetic nerve activity: Rats were anesthetized with a mixture of α-chloralose (60 mg/kg, i.p.) and urethane (800 mg/kg, i.p.). A retroperitoneal incision was made, and a branch of the left renal postganglionic sympathetic nerve was isolated under a surgical microscope. The renal sympathetic nerve was cut distally to ensure that afferent nerve activity was not recorded. The renal sympathetic nerve activity (RSNA), arterial blood pressure (ABP), and heart rate (HR) were recorded using a 1401-PLUS analog-to-digital converter and Spike2 system (Cambridge Electronic Design, Cambridge, UK). A microinjection pipette (tip diameter, 20-30 μm) was advanced into the PVN according to the following stereotactic coordinates: 1.6-2.0 mm caudal to the bregma, 0.5 mm lateral to the midline, and 7.0-7.5 mm ventral to the dura. The microinjection was done using a calibrated microinjection system (Nanoject II; Drummond Scientific) and monitored using a surgical microscope as described previously (Li and Pan, 2006, 2007; Qiao et al., 2017). Ang II (200 μmol/L, 50 nl) was microinjected into the PVN to observe the change in RSNA and ABP in the absence or presence of α2δ-1Tat peptide (100 μmol/L, 50 nl) or control peptide (100 μmol/L, 50 nl). The microinjections were separated by 10- to 15-min intervals to allow recovery of the response. To determine the location of the injection site and diffusion of the drugs in the PVN, 5% rhodamine-labeled fluorescent microspheres (0.04 μm; Molecular Probes) were included in the injection solution (Li and Pan, 2006, 2007; Qiao et al., 2017).

[6] = target: T5, NMDARs of RVLM-projecting PVN neurons (Rattus norvegicus, UniProt P35439+Q00959+Q00960); experiment: Recordings of RVLM-projecting PVN neurons in slices of WKY rats and SHRs; format: cell-based
T5 construct: from tissue; host or cells: rat hypothalamic slices containing the PVN (Sprague-Dawley, WKY, SHR) and synaptosomes made from them

[7] = paclitaxel-treated rats, AP5 50 μM, pregabalin 20 μM, peptides 1 μM
[8] = vehicle-treated rats, AP5 50 μM, pregabalin 20 μM, peptides 1 μM

T5 sequence (Q00959 20-1464 limits assumed, other chains not shown): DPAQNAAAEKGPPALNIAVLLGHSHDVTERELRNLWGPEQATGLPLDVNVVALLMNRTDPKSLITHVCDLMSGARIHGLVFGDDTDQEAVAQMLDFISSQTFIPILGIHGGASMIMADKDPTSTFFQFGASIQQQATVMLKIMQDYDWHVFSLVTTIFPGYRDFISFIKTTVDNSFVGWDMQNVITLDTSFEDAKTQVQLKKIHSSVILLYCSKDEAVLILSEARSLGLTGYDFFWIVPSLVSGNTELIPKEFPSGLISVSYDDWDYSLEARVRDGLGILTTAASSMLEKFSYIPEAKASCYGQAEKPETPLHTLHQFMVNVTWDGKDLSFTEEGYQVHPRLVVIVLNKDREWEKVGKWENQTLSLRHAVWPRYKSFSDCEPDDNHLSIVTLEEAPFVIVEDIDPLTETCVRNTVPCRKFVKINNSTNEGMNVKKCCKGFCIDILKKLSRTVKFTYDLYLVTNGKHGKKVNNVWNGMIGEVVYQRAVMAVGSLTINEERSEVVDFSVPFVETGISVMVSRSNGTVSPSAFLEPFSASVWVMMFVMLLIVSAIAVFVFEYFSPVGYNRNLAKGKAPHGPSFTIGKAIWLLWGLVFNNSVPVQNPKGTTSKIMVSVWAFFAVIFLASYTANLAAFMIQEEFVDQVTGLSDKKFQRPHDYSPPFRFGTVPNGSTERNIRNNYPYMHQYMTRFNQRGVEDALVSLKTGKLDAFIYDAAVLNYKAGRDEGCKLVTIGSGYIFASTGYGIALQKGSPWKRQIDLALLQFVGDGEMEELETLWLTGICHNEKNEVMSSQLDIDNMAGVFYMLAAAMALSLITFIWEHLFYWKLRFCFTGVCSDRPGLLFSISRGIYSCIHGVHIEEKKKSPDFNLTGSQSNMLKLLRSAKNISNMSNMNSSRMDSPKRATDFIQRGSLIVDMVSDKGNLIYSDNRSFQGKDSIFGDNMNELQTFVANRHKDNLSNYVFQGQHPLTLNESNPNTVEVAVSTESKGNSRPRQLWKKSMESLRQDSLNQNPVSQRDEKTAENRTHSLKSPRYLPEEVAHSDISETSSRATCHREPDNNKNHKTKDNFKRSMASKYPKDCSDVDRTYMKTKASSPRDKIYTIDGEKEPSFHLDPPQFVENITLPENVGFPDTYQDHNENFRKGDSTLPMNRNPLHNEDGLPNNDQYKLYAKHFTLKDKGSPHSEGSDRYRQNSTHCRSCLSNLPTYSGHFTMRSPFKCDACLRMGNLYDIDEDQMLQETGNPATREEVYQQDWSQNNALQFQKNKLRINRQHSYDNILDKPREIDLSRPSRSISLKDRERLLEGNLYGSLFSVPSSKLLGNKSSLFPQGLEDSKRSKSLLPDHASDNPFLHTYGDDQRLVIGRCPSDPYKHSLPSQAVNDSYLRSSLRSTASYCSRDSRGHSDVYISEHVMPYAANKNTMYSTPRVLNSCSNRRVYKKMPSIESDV
T5 sequence (Q00960 27-1482, other chains not shown): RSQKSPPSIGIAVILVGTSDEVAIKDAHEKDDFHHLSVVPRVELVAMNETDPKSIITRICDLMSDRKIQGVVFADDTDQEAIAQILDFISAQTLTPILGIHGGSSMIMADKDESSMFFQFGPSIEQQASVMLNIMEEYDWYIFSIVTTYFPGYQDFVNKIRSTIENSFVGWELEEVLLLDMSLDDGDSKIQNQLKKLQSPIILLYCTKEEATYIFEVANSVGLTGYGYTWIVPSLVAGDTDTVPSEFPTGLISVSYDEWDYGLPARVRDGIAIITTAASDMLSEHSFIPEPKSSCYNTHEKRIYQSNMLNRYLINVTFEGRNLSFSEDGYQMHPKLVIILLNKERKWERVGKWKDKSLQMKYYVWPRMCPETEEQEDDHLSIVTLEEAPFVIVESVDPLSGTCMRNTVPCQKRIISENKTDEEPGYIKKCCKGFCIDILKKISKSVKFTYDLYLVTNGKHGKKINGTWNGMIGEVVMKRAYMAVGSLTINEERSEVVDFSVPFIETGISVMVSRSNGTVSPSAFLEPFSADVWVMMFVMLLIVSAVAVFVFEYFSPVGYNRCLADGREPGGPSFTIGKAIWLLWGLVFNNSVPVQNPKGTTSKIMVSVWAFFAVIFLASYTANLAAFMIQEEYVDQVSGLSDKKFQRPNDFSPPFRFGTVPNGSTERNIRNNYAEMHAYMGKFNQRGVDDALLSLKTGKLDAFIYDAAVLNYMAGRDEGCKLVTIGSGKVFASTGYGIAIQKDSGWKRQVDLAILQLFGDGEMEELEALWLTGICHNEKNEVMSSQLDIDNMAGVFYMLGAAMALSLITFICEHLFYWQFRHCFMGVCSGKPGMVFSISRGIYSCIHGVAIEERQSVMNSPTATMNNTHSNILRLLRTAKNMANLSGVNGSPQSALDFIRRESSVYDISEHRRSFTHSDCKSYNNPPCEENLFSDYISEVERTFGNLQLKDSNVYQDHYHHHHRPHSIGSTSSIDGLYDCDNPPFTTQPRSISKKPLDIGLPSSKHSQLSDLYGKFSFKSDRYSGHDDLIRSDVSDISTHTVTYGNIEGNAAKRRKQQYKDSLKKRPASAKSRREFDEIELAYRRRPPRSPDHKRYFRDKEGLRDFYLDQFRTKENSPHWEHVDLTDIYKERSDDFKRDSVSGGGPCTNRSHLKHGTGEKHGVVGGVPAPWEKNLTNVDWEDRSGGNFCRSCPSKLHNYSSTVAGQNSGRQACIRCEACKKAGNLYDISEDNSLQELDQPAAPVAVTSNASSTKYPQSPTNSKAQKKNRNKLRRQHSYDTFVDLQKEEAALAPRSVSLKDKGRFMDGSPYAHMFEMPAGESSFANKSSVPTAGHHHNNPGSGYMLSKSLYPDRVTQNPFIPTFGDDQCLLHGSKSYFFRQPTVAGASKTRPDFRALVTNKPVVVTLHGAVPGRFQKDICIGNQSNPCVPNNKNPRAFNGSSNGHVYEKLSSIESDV
T3 sequence (O08532 25-956 limits assumed, other chains not shown): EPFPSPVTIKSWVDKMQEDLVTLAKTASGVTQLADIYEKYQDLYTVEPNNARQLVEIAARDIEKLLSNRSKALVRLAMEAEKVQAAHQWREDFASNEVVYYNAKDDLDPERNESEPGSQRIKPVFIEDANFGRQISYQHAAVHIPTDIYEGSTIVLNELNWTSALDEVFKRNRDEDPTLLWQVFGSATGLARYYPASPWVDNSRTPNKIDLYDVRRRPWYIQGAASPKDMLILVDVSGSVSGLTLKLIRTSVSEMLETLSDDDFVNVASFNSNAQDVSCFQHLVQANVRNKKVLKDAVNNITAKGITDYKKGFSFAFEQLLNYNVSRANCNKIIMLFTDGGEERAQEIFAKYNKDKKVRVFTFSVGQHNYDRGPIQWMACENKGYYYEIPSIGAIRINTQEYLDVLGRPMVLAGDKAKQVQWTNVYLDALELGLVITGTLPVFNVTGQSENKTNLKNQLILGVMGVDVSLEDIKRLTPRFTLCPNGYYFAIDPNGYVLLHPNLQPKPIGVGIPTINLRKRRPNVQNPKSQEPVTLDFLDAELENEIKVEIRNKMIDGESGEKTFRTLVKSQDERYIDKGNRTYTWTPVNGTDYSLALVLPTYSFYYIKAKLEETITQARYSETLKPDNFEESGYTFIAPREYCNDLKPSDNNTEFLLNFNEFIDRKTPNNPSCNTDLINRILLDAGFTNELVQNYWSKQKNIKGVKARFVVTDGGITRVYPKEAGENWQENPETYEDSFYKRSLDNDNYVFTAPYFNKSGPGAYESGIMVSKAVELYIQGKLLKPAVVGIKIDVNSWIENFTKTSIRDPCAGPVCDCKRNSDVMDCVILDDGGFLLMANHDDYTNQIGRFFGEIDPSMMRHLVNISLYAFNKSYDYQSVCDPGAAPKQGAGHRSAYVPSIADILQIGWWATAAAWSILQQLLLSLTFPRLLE

FGLGWQPWSLSFYLVWSGLILSVLHLIRSN (Control peptide) [Tat-fused scrambled peptide]
effect of Ang II on mEPSC frequency in pretreated slices [1]: did not affect | effect of Ang II on puff NMDA currents in pretreated slices ([1]; 30 min): significantly increased | amplitude of monosynaptic evoked EPSCs [2]: did not affect | increased amplitude of evoked monosynaptic EPSCs [3, 7]: did not significantly alter | increased frequency of mEPSCs of lamina II neurons [3, 7]: did not affect | PPR of evoked EPSCs ([3]; vehicle-treated rats): had no effect | amplitude of evoked monosynaptic EPSCs [3, 8]: did not significantly alter | frequency of mEPSCs of lamina II neurons [3, 8]: did not affect | OGD-induced increase in the puff NMDAR currents [4]: did not alter | increased protein levels of GluN1, GluN2A, GluN2B and α2δ-1 in spinal cord synaptosomes ([5]; SNL rats): had no such effects | protein levels of GluN1, GluN2A, GluN2B and α2δ-1 in spinal cord synaptosomes ([5]; sham rats): had no such effects | ABP and RSNA responses to Ang II after prior peptide microinjection into the PVN (anesthetized rats): not altered | puff NMDA currents of labelled PVN neurons ([6]; SHRs): had no effect | ratio of NMDAR-EPSCs to AMPAR-EPSCs ([6]; SHRs): did not affect | baseline frequency of mEPSCs of labelled PVN neurons ([6]; SHRs, AP5 50 μmol L-1, gabapentin 100 μmol L-1, peptides 1 μmol L-1, 60 min): had no effect | amplitude of evoked NMDAR-EPSCs of labelled PVN neurons ([6]; SHRs, gabapentin 100 μmol L-1, peptides 1 μmol L-1, 60 min): did not affect | amplitude of puff NMDA currents ([6]; WKY rats): had no effect | frequency or amplitude of mEPSCs of labelled PVN neurons ([6]; WKY rats): had no effect | ratio of NMDAR-EPSCs to AMPAR-EPSCs ([6]; WKY rats): did not affect | amplitude of evoked AMPAR-EPSCs of labelled PVN neurons ([6]; WKY rats or SHRs): did not affect | amplitude of evoked NMDAR-EPSCs of labelled PVN neurons ([6]; WKY rats, gabapentin 100 μmol L-1, peptides 1 μmol L-1, 60 min): did not affect
